Assay [1] addresses biotinylated human FcRn (human) (UniProt P55899). The experiment in a line: FcRn binding ELISA at pH 6: biotinylated human FcRn on neutravidin, anti-human IgG-Fc-HRP. In general terms: An ELISA detects its analyte on a solid surface through an enzyme-linked reagent.
Assay [2] has the same target. As to the kind of experiment: FcRn binding ELISA at pH 7: biotinylated human FcRn on neutravidin, anti-human IgG-Fc-HRP.
Assay [3] has the same target. As to the kind of experiment: FcRn binding ELISA at pH 6: biotinylated human FcRn on neutravidin, anti-human IgG-Fc-HRP. This is another data set of the same source.
Assay [4] shares this target. The experiment in a line: FcRn binding ELISA at pH 7: biotinylated human FcRn on neutravidin, anti-human IgG-Fc-HRP. This is another data set of the same source.
Assay [5] shares this target. The experiment in a line: competition ELISA at pH 6: biotinylated human FcRn on neutravidin, competitor recombinant hIgG3 (m8), bound IgG3 detected.
The target is the same in assay [6]. Described as above. The source holds these as a separate data set.
Assay [7] shares this target. The description is as above. This is another data set of the same source.
Assay [8] has as its target human IgE pre-bound on human basophils (human) (UniProt P01854). As to the kind of experiment: cell-based or functional assay.

By EC50 (read off the curve) is commonly meant the midpoint of the concentration-response curve. A lower EC50 (read off the curve) goes with an effect from little substance.

Where two headings read alike, the source gives them in different places.

Sequence of biotinylated human FcRn (human) (P55899 24-297 limits assumed, chain 1 of 2): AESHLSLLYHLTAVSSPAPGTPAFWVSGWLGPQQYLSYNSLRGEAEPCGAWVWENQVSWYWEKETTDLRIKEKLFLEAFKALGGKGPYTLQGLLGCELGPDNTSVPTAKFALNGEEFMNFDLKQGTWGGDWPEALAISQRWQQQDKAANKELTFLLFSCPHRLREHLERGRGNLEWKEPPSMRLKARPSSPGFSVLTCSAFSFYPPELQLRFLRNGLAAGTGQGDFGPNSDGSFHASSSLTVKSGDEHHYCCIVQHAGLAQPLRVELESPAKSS
Sequence of biotinylated human FcRn (human) (chain, as listed by the source limits assumed, chain 2 of 2): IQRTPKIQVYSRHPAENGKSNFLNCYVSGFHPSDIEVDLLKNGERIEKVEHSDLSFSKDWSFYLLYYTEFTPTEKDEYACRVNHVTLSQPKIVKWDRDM

For the substance Efgartigimod, the EC50 (read off the curve) is 0.05 nM in assay [1], 0.02 nM in assay [2], 0.06 nM in assay [3] and 0.09 nM in assay [4]. Also, the results for the IC50 (read off the curve) in assay [5], in assay [6] and in assay [7] were 0.9 nM, 0.7 nM and 0.6 nM, respectively.
For the substance Irrelevant antibody, in assay [8], the % of activated basophils (CCR3+CD63+) was 3%.

The record behind these values is patent publication US20220177604A1.
